Data on one substance can be found in publication PMC3839042.

One assay deals with human S100A2 (human) (UniProt P29034). The assay is described as follows: ITC.
The next assay concerns the target human S100B (human) (UniProt P04271). Kind of assay: ITC.

Sequence of human S100B (human) (P04271 whole entry): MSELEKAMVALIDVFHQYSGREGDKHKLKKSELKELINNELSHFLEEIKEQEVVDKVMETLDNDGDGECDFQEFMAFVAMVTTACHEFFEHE
Sequence of human S100A2 (human) (P29034 whole entry): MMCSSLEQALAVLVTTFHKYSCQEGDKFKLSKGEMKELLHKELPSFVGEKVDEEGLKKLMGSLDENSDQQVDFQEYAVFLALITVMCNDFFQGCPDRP

Substance TRTK12 wild-type peptide (Ac-…-NH2) returned a stoichiometry N (peptides per S100A2 dimer) in the assay with human S100A2 (human) of 2. In the assay with human S100B (human), this substance gave a stoichiometry N (peptides per S100B dimer) of 2.
